Measurements: patent publication CN117229395A

Columns and labels:
[1] = target: T1, CT43 (human); test: competition ELISA; antibody pre-incubated with alanine-mutant peptide, then on coated CT antigen
T1 sequence (peptide, C-terminal amide (-NH2)): ATAIGVGAP

[2] = target: T2, CT45 (human); test: as above
T2 sequence (peptide, C-terminal amide (-NH2)): QTAAGVGAP

[3] = target: T3, CT46 (human); test: as above
T3 sequence (peptide, C-terminal amide (-NH2)): QTAIAVGAP

[4] = target: T4, CT44 (human); test: as above
T4 sequence (peptide, C-terminal amide (-NH2)): QAAIGVGAP

[5] = target: T5, CT48 (human); test: as above
T5 sequence (peptide, C-terminal amide (-NH2)): QTAIGVAAP

[6] = target: T6, CT49 (human); test: as above
T6 sequence (peptide, C-terminal amide (-NH2)): QTAIGVGAA

[7] = target: T7, CT47 (human); test: as above
T7 sequence (peptide, C-terminal amide (-NH2)): QTAIGAGAP

[8] = target: T8, CT22 (human); test: competition ELISA; antibody pre-incubated with peptide, then on coated CT antigen
T8 sequence (peptide, C-terminal amide (-NH2)): QTAIGVGAP

[9] = target: T9, CT25 (human); test: as above
T9 sequence (peptide, C-terminal amide (-NH2)): VGAP

[10] = target: T10, CT21 (human); test: as above
T10 sequence (peptide, C-terminal amide (-NH2)): HTFPQTAIGVGAP

[11] = target: T11, CT23 (human); test: as above
T11 sequence (peptide, C-terminal amide (-NH2)): IGVGAP

[12] = target: CT24 (human); test: as above
[13] = target: CT26 (human); test: as above
[14] = target: T12, WHO国际标准降钙素(Human NIBSC code:89/620) (Human) (UniProt P01258); test: sandwich chemiluminescence; CT captured by 10B11 magnetic beads, detected by acridinium ester labelled 14D11
T12 sequence (peptide, looked up): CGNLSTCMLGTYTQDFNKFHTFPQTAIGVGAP

[15] = target: T13, CT12 (human); test: competition ELISA; antibody pre-incubated with peptide, then on coated CT antigen
T13 sequence (peptide): DFNKFHT

[16] = target: T14, CT14 (human); test: as above
T14 sequence (peptide): DFNKFHTFP

[17] = target: T15, CT16 (human); test: as above
T15 sequence (peptide): FNKF

[18] = target: T16, CT15 (human); test: as above
T16 sequence (peptide): DFNKFHTFPQ

[19] = target: T17, CT6 (human); test: as above
T17 sequence (peptide): TQDFNKFHTFP

[20] = target: T18, CT13 (human); test: as above
T18 sequence (peptide): DFNKFHTF

[21] = target: T19, CT4 (human); test: as above
T19 sequence (peptide): YTQDFNKFHTFP

[22] = target: T20, CT11 (human); test: as above
T20 sequence (peptide): DFNKFH

[23] = target: T21, CT7 (human); test: as above
T21 sequence (peptide): TQDFNKFHTFPQ

[24] = target: T22, CT5 (human); test: as above
T22 sequence (peptide): TQDFNKFHTF

[25] = target: T23, CT2 (human); test: as above
T23 sequence (peptide): LGTYTQDFNKFHTFPQ

[26] = target: T24, CT8 (human); test: as above
T24 sequence (peptide): QDFNKFHTF

[27] = target: T25, CT17 (human); test: as above
T25 sequence (peptide): FNKFH

[28] = target: T26, CT1 (human); test: as above
T26 sequence (peptide): CGNLSTCMLGTYTQDF

[29] = target: T27, CT9 (human); test: as above
T27 sequence (peptide): QDFNKFHTFP

[30] = target: T28, CT10 (human); test: as above
T28 sequence (peptide): QDFNKFHTFPQ

[31] = target: T29, CT18 (human); test: as above
T29 sequence (peptide): FNKFHT

[32] = target: T30, CT3 (human); test: as above
T30 sequence (peptide): NKFHTFPQTAIGVGAP

B1: 10B11 (antibody, V domains shown)
VH: SDVQLQESGPGLVKPSQSLSLTCTVTGYSITSDYVWNWIRQFPGNKLEWMGYISYSGSTNYNPSLKSRISITRDTSKNQFFLQLNSVTTEDTATYYCAREDWPAWGQ
VL: DIVMTQSQKLMSTSVGDRVSITCKASQNVRSAVAWYQQKPGQSPKTLIYLTSNRHTGVPDRFTGSGSGTDFTLTINNVQSEDLADYFCLQHWNSPLTFGGGTKLEIK
[1]
  competition rate (对照样品OD值-检测样品OD值)/对照样品OD值: 97%
[2]
  competition rate (对照样品OD值-检测样品OD值)/对照样品OD值: 97%
[3]
  competition rate (对照样品OD值-检测样品OD值)/对照样品OD值: 92%
[4]
  competition rate (对照样品OD值-检测样品OD值)/对照样品OD值: 98%
[5]
  competition rate (对照样品OD值-检测样品OD值)/对照样品OD值: 62%
[6]
  competition rate (对照样品OD值-检测样品OD值)/对照样品OD值: 56%
[7]
  competition rate (对照样品OD值-检测样品OD值)/对照样品OD值: 85%
[8]
  competition rate (对照样品OD值-检测样品OD值)/对照样品OD值: 98%
[9]
  competition rate (对照样品OD值-检测样品OD值)/对照样品OD值: 98%
[10]
  competition rate (对照样品OD值-检测样品OD值)/对照样品OD值: 98%
[11]
  competition rate (对照样品OD值-检测样品OD值)/对照样品OD值: 98%
[12]
  competition rate (对照样品OD值-检测样品OD值)/对照样品OD值: 98%
[13]
  competition rate (对照样品OD值-检测样品OD值)/对照样品OD值: 60%

B2: 14D11 (antibody, V domains shown)
VH: EVQLQQSGPELVKPGTSVKIFCMTSGYTFTEFTMHWVKKSPGESLEWIGGIFPDNGGSTYNRKFKDKATLTVDRSSRTAYLELRSLTSEDSAVYYCARYYYNGRAYGIYAMDYWGQGTSVTVSS
VL: DVVLTQSPLSLFVSLGDQVSISCRSSQSLVHSNGNTYLHWYQLKTGQSPKLLIYTVSNRFSGVPDRFSGSGSGTDFTLKINRVEAEDLGVYFCSQSKLVPWTFGGGTKLEIK
[14]
  发光值 at CT(WHO) 0.125pg/ml: 1730
  发光值 at CT(WHO) 0.25pg/ml: 2410
  发光值 at CT(WHO) 0.5pg/ml: 4030
  发光值 at CT(WHO) 1pg/ml: 7460
  发光值 at CT(WHO) 2pg/ml: 13600
[15]
  competition rate (对照样品OD值-检测样品OD值)/对照样品OD值: 92%
[16]
  competition rate (对照样品OD值-检测样品OD值)/对照样品OD值: 91%
[17]
  competition rate (对照样品OD值-检测样品OD值)/对照样品OD值: 11%
[18]
  competition rate (对照样品OD值-检测样品OD值)/对照样品OD值: 91%
[19]
  competition rate (对照样品OD值-检测样品OD值)/对照样品OD值: 94%
[20]
  competition rate (对照样品OD值-检测样品OD值)/对照样品OD值: 92%
[21]
  competition rate (对照样品OD值-检测样品OD值)/对照样品OD值: 99%
[22]
  competition rate (对照样品OD值-检测样品OD值)/对照样品OD值: 68%
[23]
  competition rate (对照样品OD值-检测样品OD值)/对照样品OD值: 95%
[24]
  competition rate (对照样品OD值-检测样品OD值)/对照样品OD值: 91%
[25]
  competition rate (对照样品OD值-检测样品OD值)/对照样品OD值: 99%
[26]
  competition rate (对照样品OD值-检测样品OD值)/对照样品OD值: 92%
[27]
  competition rate (对照样品OD值-检测样品OD值)/对照样品OD值: -14%
[28]
  competition rate (对照样品OD值-检测样品OD值)/对照样品OD值: 1%
[29]
  competition rate (对照样品OD值-检测样品OD值)/对照样品OD值: 95%
[30]
  competition rate (对照样品OD值-检测样品OD值)/对照样品OD值: 95%
[31]
  competition rate (对照样品OD值-检测样品OD值)/对照样品OD值: 30%
[32]
  competition rate (对照样品OD值-检测样品OD值)/对照样品OD值: 32%
